Values belong to the binder of their own block, whether it stands above or below them. *1 amine or outer side, *2 acyl side, *3 side chain or, on linkers, in order; H or OH if unused. Where no end group is shown, it is not given here. [ ]: non-standard residue; d: D form. Sac = acetylated serine, O-acetyl-L-serine, CC(=O)OC[C@H](N[*:1])C(=O)[*:2]
Legend:
[1] = biological target: T1, human COX2 (cyclooxygenase 2) protein with acetylated S565 residue (human, UniProt P35354 18-604, acetylated serine at S565); assay: sandwich ELISA on human microglia lysates, plate coated with 9F7-2
T1 construct: Endogenous protein in RIPA lysates of human microglia and human PBMCs, and in human brain tissue sections; also called S565 acetylated COX2 protein; acetylated COX2 protein
T1 sequence: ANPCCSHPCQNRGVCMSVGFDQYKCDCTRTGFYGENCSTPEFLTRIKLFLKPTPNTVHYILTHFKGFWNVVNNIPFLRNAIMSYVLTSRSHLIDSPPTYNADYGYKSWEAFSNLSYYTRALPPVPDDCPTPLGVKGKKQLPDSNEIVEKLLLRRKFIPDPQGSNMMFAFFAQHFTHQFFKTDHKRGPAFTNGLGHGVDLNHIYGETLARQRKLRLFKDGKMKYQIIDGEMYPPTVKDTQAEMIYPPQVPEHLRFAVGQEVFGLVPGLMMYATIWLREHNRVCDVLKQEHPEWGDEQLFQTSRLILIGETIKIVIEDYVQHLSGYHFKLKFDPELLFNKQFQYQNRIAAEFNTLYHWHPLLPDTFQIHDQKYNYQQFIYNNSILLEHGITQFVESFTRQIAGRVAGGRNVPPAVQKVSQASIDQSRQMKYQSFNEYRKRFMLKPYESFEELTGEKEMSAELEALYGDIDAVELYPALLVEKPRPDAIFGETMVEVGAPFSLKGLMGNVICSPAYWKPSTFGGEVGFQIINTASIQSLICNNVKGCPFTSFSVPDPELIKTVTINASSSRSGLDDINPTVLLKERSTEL

[2] = biological target: T2, acetylated peptide PFTSacFSVPDPELI (SEQ ID NO: 3) including acetylated S565 residue of COX2 (human); assay: ELISA, 96-well plate coated with 9F7-2, peptide captured, biotinylated COX2 antibody detection
T2 peptide: PFT[Sac]FSVPDPELI

[3] = biological target: T1, human COX2 (cyclooxygenase 2) protein …; assay: sandwich ELISA on human PBMC lysates, plate coated with 44C7C8
Experimental: The sample preparation was performed according to the following procedure. After collecting mouse and human blood, the blood was transferred to a heparin tube and reacted for 30 minutes. The reacted blood was placed on the same amount of Histopaque (sigma, 10771) and centrifuged (400 g, 30 minutes). After centrifugation, a middle PBMC layer was separated and washed. After washing, the PBMCs were lysed by adding an RIPA solution (Cell signaling, 9806S), and then the cell lysate was centrifuged (13,000×g, 10 minutes) to obtain a supernatant, and then the amount of protein was quantified and ELISA assay was performed using 100 μg/ml of protein.
After the plate was washed with PBS/Tween, 300 μl/well of a blocking solution was applied at RT for 1 hour. 50 μl of a PBMC sample (100 μg/ml) was treated and incubated at RT for 2 hours. […] After the final washing, the detection was performed with TMB (3-3′,5,5′-tetramethylbenzidine) ([…] substrate for HRP) and the plate was read at 405 nm using an ELISA plate reader. A standard curve was obtained by step-diluting the peptide (500 μg/ml) of SEQ ID NO: 3 or SEQ ID NO: 4, and the amount of COX2 protein acetylated in S565 residue was calculated by substituting an optical density (O.D.) value obtained from the sample to the Standard curve.

[4] = biological target: T3, acetylated peptide GCPFTSacFSVPD (SEQ ID NO: 4) including acetylated S565 residue of COX2 (human); assay: ELISA, plate coated with antibody, peptide captured, biotinylated COX2 antibody detection
T3 peptide: GCPFT[Sac]FSVPD

- binding result [1]: binds
- binding result [2]: binds
B1: monoclonal antibody 9F7-2 (antibody, V domains shown)
VH: QVQLQQSGAELVRPGTSVKISCKASGYTFTDYLLGWVKQRPGHGLEWIGDIYPGGTYIKYNEKFKGKATLTADTSSSTAYMQLSSLTSEDSAVYFCARGRNDEKGDYWGQGTSVTVSS
VL: DVLMTQTPLSLPVSLGDQASISCRSSQSIVHRNGFTYLEWYLQKPGQSPKLLIYQVSNRFSGVPDRFSGSGSGTDFTLKISRVEAEDLGVYYCFQGSHVPPTFGGGTKLEIK
notes: Clones were screened for IgG expression; the isotype and constant regions are not

- binding result [3]: binds
- binding result [4]: binds
B2: monoclonal antibody 44C7C8 (antibody, V domains shown)
VH: DVQLQESGPGLVKPSQSLSLTCSVTGYSITSGYYWNWIRQFPGNKLEWMGYISYDGSNNYNPSLKNRISITRDTYKKQFFLKLNSVTTEDTATYYCARGADYYGNTYFYFDVWGAGTTVTVSS
VL: DIVMSQSPSSLAVSVEEKVNMSCKSSQSLLYSRNQKNYLAWYQQKPGQSPKLLIYWASTRESGVPDRFTGSGAGTDFTLTISSVKAEDLAVYYCQQYYTYPFTFGSGTKLEIK
notes: the isotype and constant regions are not; The methods call it 44C7F5 or 44C75F and the results call it 44C7C8; also called 44C7F5; 44C75F

— patent publication US20230125690A1 (KYUNGPOOK NATIONAL UNIVERSITY INDUSTRY ACADEMIC COOPERATION …, published 2023)
